Data: patent publication US12144864B2, “Tubulysins and protein-tubulysin conjugates” (Regeneron Pharmaceuticals, Inc., priority 2018, dated 2024)

B1: Anti-PRLR N297Q Ab-LP3 (antibody, V domains shown)
VH: QVQLVESGGGVVQPGRSLRLSCGASGFTFRNYGMQWVRQGPGKGLEWVTLISFDGNDKYYADSVKGRFTISRDNSKNTLFLQMNSLRTEDTAVYYCARGGDFDYWGQGTLVTVSS
VL: DIQMTQSPSSLSASVGDRVTITCRASQDIRKDLGWYQQKPGKAPKRLIYAASSLHSGVPSRFSGSGSGTEFTLTISSLQPEDFATYYCLQHNSYPMYTFGQGTKLEIK
modifications: N297Q (EU numbering) in the heavy chain constant region; linker-payload LP3 (payload IVd) clicked to azido-PEG3-amine that transglutaminase put on heavy chain glutamines; DAR 3.9 (Table 7)
B2: Anti-PRLR N297Q Ab-LP4 (antibody, V domains shown)
VH: B1 VH
VL: B1 VL
modifications: N297Q (EU numbering) in the heavy chain constant region; linker-payload LP4 (payload Ve) clicked to azido-PEG3-amine that transglutaminase put on heavy chain glutamines; DAR 3.9 (Table 7)
B3: Anti-PRLR-LP3 (conjugate)
VH: B1 VH
VL: B1 VL
modifications: non-natural residues
B4: Anti-PRLR-LP4 (conjugate)
VH: B1 VH
VL: B1 VL
modifications: non-natural residues
B5: Anti-STEAP2-LP4 (conjugate)
VH: QVQLVESGGGVVQPGRSLRLSCVASGFTISSYGMNWVRQAPGKGLEWVAVISYDGGNKYSVDSVKGRFTISRDNSKNTLYLQMNSLRAEDSAVYYCARGRYFDLWGRGTLVTVSS
VL: DIQMTQSPSTLSASVGDRVTITCRASQSISSWLAWYQQKPGRAPNLLISKASSLKSGVPSRFSGSGSGTEFTLTVSSLQPDDFATYYCQQYYSYSYTFGQGTKLEIK

Columns and labels:
[1] = target: T1, human full length PRLR (accession #NP_000940.1) expressed on HCT15/PRLR cells (human, UniProt P16471 25-622); assay: cell-based or functional assay
T1 sequence (looked up): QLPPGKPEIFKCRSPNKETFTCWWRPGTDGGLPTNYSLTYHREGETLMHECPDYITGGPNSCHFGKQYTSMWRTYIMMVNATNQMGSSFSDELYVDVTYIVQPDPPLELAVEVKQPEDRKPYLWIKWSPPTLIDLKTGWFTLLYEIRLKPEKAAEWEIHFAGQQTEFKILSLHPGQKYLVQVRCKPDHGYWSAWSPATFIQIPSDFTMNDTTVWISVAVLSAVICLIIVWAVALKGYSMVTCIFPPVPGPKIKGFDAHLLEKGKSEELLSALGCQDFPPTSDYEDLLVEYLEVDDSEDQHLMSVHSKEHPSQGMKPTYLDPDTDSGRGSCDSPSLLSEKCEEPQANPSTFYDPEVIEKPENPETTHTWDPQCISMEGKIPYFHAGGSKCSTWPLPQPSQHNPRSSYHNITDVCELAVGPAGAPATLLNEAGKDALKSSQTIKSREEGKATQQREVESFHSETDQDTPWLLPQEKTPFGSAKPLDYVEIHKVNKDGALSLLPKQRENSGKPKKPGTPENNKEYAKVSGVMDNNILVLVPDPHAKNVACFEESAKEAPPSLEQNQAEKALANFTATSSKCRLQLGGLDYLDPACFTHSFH

[2] = In vitro plasma stability of ADCs (DAR by LC-MS), mouse plasma; type: in vitro ADME; conditions: 37° C., 50 μg/mL, DAR at 0 hr 3.8 (LP3 ADC), 4.0 (LP4 ADC), acetyl-hydrolyzed species counted as loss of drug
Procedure: (§1) To determine the plasma stability of representative ADCs containing the tubulysin payloads, ADCs were incubated in vitro with plasma from different species, and the DAR was evaluated after incubation at physiological temperature (37° C.) for 3 days.
(§2) For the assay, each ADC sample (anti-PRLR antibody-LP3 or anti-PRLR antibody-LP4) in PBS buffer was added to fresh pooled male mouse, cynomologus monkey, rat, or human plasma, separately, at a final concentration of 50 μg/mL in a 96-well plate, and subsequently incubated at 37° C. for 72 hours. After incubation, each sample (100 μL final volume) was individually frozen at −80° C. until analysis.
(§3) Affinity capture of the ADCs from the plasma samples was carried out on a KingFisher 96 magnetic particle processor (Thermo Electron). First, biotinylated extracellular domain of human PRLR expressed with a myc-myc hexahistidine tag (hPRLR ecto-MMH; SEQ ID NO: 17;100 μg/mL) was immobilized on streptavidin paramagnetic beads (In vitrogen, Cat #60210). Each plasma sample containing tubulysin ADCs (100 μL) was mixed at 600 rpm with 100 μL of the beads (the commercial beads come in volume) at room temperature for 2 hours in a 96-well plate. The beads were then washed three times with 600 μL of HBS-EP (GE healthcare, Cat #BR100188), once with 600 μL of H2O, and then once with 600 μL of 10% acetonitrile in water. […]

[3] = In vitro plasma stability of ADCs (DAR by LC-MS), cynomolgus monkey plasma; type: in vitro ADME; conditions: 37° C., 50 μg/mL, DAR at 0 hr 3.8 (LP3 ADC), 4.0 (LP4 ADC), acetyl-hydrolyzed species counted as loss of drug
Procedure: as §1, §2, §3

[4] = In vitro plasma stability of ADCs (DAR by LC-MS), rat plasma; type: in vitro ADME; conditions: 37° C., 50 μg/mL, DAR at 0 hr 3.8 (LP3 ADC), 4.0 (LP4 ADC), acetyl-hydrolyzed species counted as loss of drug
Procedure: as §1, §2, §3

[5] = In vitro plasma stability of ADCs (DAR by LC-MS), human plasma; type: in vitro ADME; conditions: 37° C., 50 μg/mL, DAR at 0 hr 3.8 (LP3 ADC), 4.0 (LP4 ADC), acetyl-hydrolyzed species counted as loss of drug
Procedure: as §1, §2, §3

HCT15/PRLR cells = assay: Cytotoxicity of anti-PRLR tubulysin ADCs and payloads in HCT15/PRLR cells with or without Verapamil; type: cell-based, human; conditions: at maximum concentration tested; for % kill on HCT15/PRLR w/ Verapamil: with Verapamil; for % kill on HCT15/PRLR w/o Verapamil: without Verapamil
Procedure: To test the ability of the disclosed tubulysin payloads to kill human cell lines, an in vitro cytotoxicity assay was performed. In vitro cytotoxicity of the disclosed payloads, as well as reference compounds, were evaluated using the CellTiter-Glo Assay Kit (Promega, Cat #G7573), in which the quantity of ATP present is used to determine the number of viable cells in culture. For the assay, C4-2, HEK293, or T47D cells were seeded at 4000 cells/well on Nunclon white 96-well plates in complete growth medium (DME high glucose:Ham's F12 at 4:1, 10% FBS, 100 units/ml Penicillin, 100 ug/ml streptomycin, 53 ug/ml glutatmine, 10 ug/ml insulin, 220 ng/ml biotin, 12.5 pg/ml T3, 12.5 ug/ml Adenine, 4 ug/ml transferrin for C42 cells; DME high glucose, 10% FBS, 100 units/ml Penicillin, 100 ug/ml streptomycin, 53 ug/ml glutatmine for HEK293; RPMI, 10% FBS, 100 units/ml Penicillin, 100 ug/ml streptomycin, 53 ug/ml glutatmine, 10 ug/ml insulin, 10 mM HEPEs, 200 nM Sodium Pyruvate for T47D cells) and grown overnight at 37° C. in 5% CO2. For cell viability curves, 1:3 serially diluted payloads were added to the cells at final concentrations ranging from 100 nM to […], including a no treatment control group, and were then incubated for 5 days. After the 5-day incubation, cells were incubated at room temperature with 100 μL of CellTiter-Glo reagents for 10 minutes. Relative luminescence units (RLU) were determined on a Victor plate reader (PerkinElmer). The IC50 values were determined from a four-parameter logistic equation over a 10-point response curve (GraphPad Prism). All IC50 values are expressed in molar (M) concentration. The percent cell killing (% kill) at the maximum concentration tested was estimated from the following formula (100−% viable cells). Averages±standard deviation (SD) are included where replicate experiments were performed.
Bioassays were developed to assess the efficacy of an anti-PRLR antibody conjugated with the disclosed tubulysin payloads and reference payloads. It was developed to assess the activity of tubulysin payloads after internalization of an anti-PRLR-tubulysin ADC into cells, release of the payload, and subsequent cytotoxicity. For this assay, a HCT15 line was engineered to express human full length PRLR (accession #NP_000940.1). The resulting stable cell line is referred to herein as HCT15/PRLR. In vitro cytotoxicity of the disclosed payloads, reference compounds, and tested ADCs were evaluated similarly as described in this example using HCT15/PRLR cells with or without […] of Verapamil diluted in normal culture medium. The compounds were tested at concentrations starting at 100 nM with 3-fold serial dilution. All IC50 values are expressed in nM concentration and the percent cell killing (% kill) at the maximum concentration tested was estimated from the following formula (100−% viable cells).

[6] = tested on: STEAP2 positive C4-2 prostate cancer xenografts; assay: In vivo efficacy of anti-STEAP2 ADCs in C4-2 prostate cancer xenografts in SCID mice; parameters: species or system mouse; conditions: single dose 2.5 mg/kg via tail vein; end of study
Procedure: To determine the in vivo efficacy of anti-STEAP2 antibodies conjugated to tubulysins, studies were performed in immunocompromised mice bearing STEAP2 positive C4-2 prostate cancer xenografts.
For the assay, 7.5×10^6 C4-2 cells (ATCC, Cat #CRL-3314), which endogenously express STEAP2, were suspended in Matrigel (BD Biosciences, Cat #354234) and implanted subcutaneously into the left flank of male CB17 SCID mice (Taconic, Hudson NY). Once tumors had reached an average volume of 220 mm^3 (around Day 15), mice were randomized into groups of 7 and given a single dose of either anti-STEAP2 conjugated antibodies (anti-STEAP2-LP3, anti-STEAP2-LP4, anti-STEAP2-MMAE), isotype control conjugated antibody, or vehicle at 2.5 mg/kg via tail vein injection. Tumors were measured with calipers twice a week until the average size of the vehicle group reached 1500 mm^3. Tumor size was calculated using the formula (length×width^2)/2 and the average tumor size+/−SEM was then calculated. Tumor growth inhibition was calculated according to the following formula: (1−((Tfinal−Tinitial)/(Cfinal−Cinitial)))*100, where treated group (T) and control group (C) represent the mean tumor mass on the day the vehicle group reached 1500 mm^3.

[7] = tested on: CTG-2440 prostate cancer PDX; assay: Efficacy of STEAP2-Tubulysin ADC in CTG-2440 PDX prostate cancer model in NOG mice; type: in vivo, mouse
Procedure: (§4) Prostate cancer Patient-Derived Xenograft (PDX) tumor fragments of either CTG-2440 or CTG-2441 were implanted subcutaneously into the flank of male NOG mice. Once the tumor volumes reached approximately 200 mm^3, mice were randomized into groups of eight and were treated according to the schedule shown in Table 16 below. Tumor growth was monitored for 60 days post-implantation.
(§5) The prostate cancer models were derived from the bone metastases of patients with metastatic castrate resistant prostate cancer (mCRPC). STEAP2 expression was confirmed by RNA sequencing data and RNA in situ hybridization.

[8] = tested on: CTG-2441 prostate cancer PDX; assay: Efficacy of STEAP2-Tubulysin ADC in CTG-2441 PDX prostate cancer model in NOG mice; type: in vivo, mouse
Procedure: as §4, §5

[9] = 1.86 mg/kg QW × 1, total payload dose 40 ug/kg
[10] = 1.86 mg/kg QW × 3, total payload dose 120 ug/kg
[11] = 3.72 mg/kg QW × 3, total payload dose 240 ug/kg
[12] = 1.82 mg/kg QW × 1, total payload dose 40 ug/kg
[13] = 1.82 mg/kg QW × 3, total payload dose 120 ug/kg
[14] = 3.64 mg/kg QW × 3, total payload dose 240 ug/kg

Molecule | IC50 (nM) on HCT15/PRLR w/ Verapamil (CellTiter-Glo cytotoxicity) [1] [nM] | IC50 (nM) on HCT15/PRLR w/o Verapamil (CellTiter-Glo cytotoxicity) [1] [nM] | DAR after 72 hours of incubation [2] | DAR after 72 hours of incubation [3] | DAR after 72 hours of incubation [4] | DAR after 72 hours of incubation [5] | % kill on HCT15/PRLR w/ Verapamil (HCT15/PRLR cells) [%] | % kill on HCT15/PRLR w/o Verapamil (HCT15/PRLR cells) [%] | further results
B1 | 0.309 | 0.525 | – | – | – | – | – | – | –
B2 | 0.196 | 3.31 | – | – | – | – | – | – | –
B3 | – | – | 2.7 | 2.7 | 2.7 | 3.0 | 91 | 90 | –
B4 | – | – | 2.7 | 2.7 | 2.6 | 3.0 | 91 | 65 | –
B5 | – | – | – | – | – | – | – | – | Average Final Tumor size mm^3 (mean ± SEM) [6]: 258 ± 60 mm^3; Average Tumor Growth Inhibition (%) [6]: 97%; Final tumor volume (mm^3) at termination (mean ± SD) [7, 9]: 179.9 ± 68.5 mm^3; Tumor growth (mm^3) from start of treatment (mean ± SD) [7, 9]: −20.0 ± 65.1 mm^3; Final tumor volume (mm^3) at termination (mean ± SD) [7, 10]: 73.5 ± 53.4 mm^3; Tumor growth (mm^3) from start of treatment (mean ± SD) [7, 10]: −129.3 ± 67.7 mm^3; Final tumor volume (mm^3) at termination (mean ± SD) [7, 11]: 6.0 ± 11.4 mm^3; Tumor growth (mm^3) from start of treatment (mean ± SD) [7, 11]: −196.5 ± 37.1 mm^3; Final tumor volume (mm^3) at termination (mean ± SD) [8, 12]: 171.8 ± 176.1 mm^3; Tumor growth (mm^3) from start of treatment (mean ± SD) [8, 12]: −36.8 ± 167.0 mm^3; Final tumor volume (mm^3) at termination (mean ± SD) [8, 13]: 46.0 ± 15.1 mm^3; Tumor growth (mm^3) from start of treatment (mean ± SD) [8, 13]: −164.0 ± 57.3 mm^3; Final tumor volume (mm^3) at termination (mean ± SD) [8, 14]: 33.5 ± 13.6 mm^3; Tumor growth (mm^3) from start of treatment (mean ± SD) [8, 14]: −179.1 ± 51.3 mm^3
